Measured values as given in patent US20230277632A1, “MODIFIED PlySs2 LYSINS AND ANTIBIOTIC COMBINATIONS FOR USE AGAINST GRAM-POSITIVE BACTERIA” (ContraFect Corporation, priority 2020, published 2023).
Read-outs that look alike come from different tables or passages of the source.

Assays:
MSSA strains = assay: Checkerboard assay: pp296 or CF-301 with oxacillin; type: cell-based, Staphylococcus aureus; settings: for FIC: pp296 + oxacillin; for ΣFICmin: with oxacillin
Text: In some embodiments, the present modified lysin polypeptides reduce the minimum inhibitory concentration (MIC) of an antibiotic. Any known method to assess MIC may be used. In some embodiments, a checkerboard assay is used to determine the effect of a lysin on antibiotic concentration. The checkerboard assay is based on a modification of the CLSI method for MIC determination by broth microdilution (See Clinical and Laboratory Standards Institute (CLSI), CLSI. 2015. Methods for Dilution Antimicrobial Susceptibility Tests for Bacteria That Grow Aerobically; Approved Standard-10th Edition. Clinical and Laboratory Standards Institute, Wayne, Pa., which is herein incorporated by reference in its entirety and Ceri et al. 1999. J. Clin. Microbiol. 37: 1771-1776, which is also herein incorporated by reference in its entirety).
Checkerboards are constructed by first preparing columns of e.g., a 96-well polypropylene microtiter plate, wherein each well has the same amount of antibiotic diluted 2-fold along the horizontal axis. […] The lysin and antibiotic dilutions are then combined, so that each column has a constant amount of antibiotic and doubling dilutions of lysin, while each row has a constant amount of lysin and doubling dilutions of antibiotic. Each well thus has a unique combination of lysin and antibiotic. Bacteria are added to the drug combinations at a given concentration. […] Summation fractional inhibitory concentrations (ΣFICs) are calculated for each drug and the minimum ΣFIC value (ΣFICmin) is used to determine the effect of the lysin/antibiotic combination.
The ability of CF-301 or a modified lysin polypeptide pp296 to synergize with oxacillin was assessed using a checkerboard analysis. For the checkerboard assay, a total of 50 μl of Mueller-Hinton broth is distributed into each well of microdilution plates. Then, a first antibiotic of a combination is serially diluted along the ordinate, while a second drug is diluted along the abscissa. An inoculum equal to a 0.5 McFarland turbidity standard is prepared from each bacterial isolate in Mueller-Hinton broth. Each microtiter well is then inoculated with 100 μl of a bacterial inoculum of 5×10^5 CFU/ml, and the plates are incubated at 37° C. for 18 h under aerobic conditions. The resulting checkerboard contains each combination of two antibiotics, with wells that contain the highest concentration of each antibiotic at opposite corners. […] To quantify the interactions between the antibiotics being tested, the FIC index (the combination of antibiotics that produced the greatest change from the individual antibiotic's MIC) value is calculated for each strain and antibiotic combination as follows:
(A/MICA)+(B/MICB)=FICA+FICB=FIC index,
where A and B are the MIC of each agent in combination in a single well, and MICA and MICB are the MIC of each drug when used individually. The combination is considered strongly synergistic when the FIC index is ≤0.5 and synergistic when the FIC index is >0.5-<1.

S. aureus isolates = assay: MIC determination (broth microdilution) against 8 S. aureus isolates; type: cell-based; design: MIC pp296 (AST media): unit not given beside the values; settings: for MIC pp296 (mouse serum): 100% ICR mouse serum; for MIC pp296 (human serum): 100% human serum; for MIC pp296 (AST media): caMHB-HSD
Protocol: Suitable methods for assessing the activity of a modified lysin polypeptide as disclosed herein are well known in the art and described in the examples. […] For example, MIC values for a modified lysin polypeptide may be determined against e.g., laboratory Staphylococcus aureus strains, in e.g., Mueller-Hinton broth or Mueller-Hinton broth supplemented with serum, such as horse serum.
The pp296 MICs were determined based on (1) cation-adjusted Mueller-Hinton Broth with 25% horse serum and 0.5 mM DTT (caMHB-HSD); (2) human serum (100% serum); and (3) ICR mice (100% serum). Vancomycin and daptomycin MICs of the isolate strains were determined in accordance with the broth microdilution method as outlined by CLSI. Results of the MIC determination are shown below in Table 2. The bacterial isolates were frozen at −80° C. in skim milk.

S. aureus = assay: pp296 dose fractionation study, neutropenic murine thigh infection model; type: in vivo
Protocol: Each of the pp296 TDDs was fractionated into three regimens, i.e., one-third of the entire dose was administered via IV three times (q8h); one-half of the entire does was administered via IV two times (q12h), or the entire dose was administered via IV once daily over a 24-hour period, for a total of three groups per each TDD.
Untreated control mice (n=3/group) were sacrificed just prior to antibiotic administration, as well as 24 hours later. Animals sacrificed prior to antibiotic administration served as 0-hour control animals, representing initial bacterial burden. The 24-hour control animals received sterile normal saline in the same volume and schedule as the most frequent active drug regimen. […] After the 24-hour treatment period, all animals were euthanized and thighs were cultured quantitatively as described above. The change in bacterial density was calculated for each of the dosing regimen. Comparisons were made between the different regimens of the same total daily dose on bacterial burdens at 24 hours using one-way Analysis of Variance (ANOVA) test followed by Tukey's test where the P value was 0.05.

[1] = tested on: 5 MSSA and 5 MRSA isolates; settings: cited from earlier work

B1: pp296: modified PlySs2 lysin, SEQ ID NO: 6: L92W, V104S, V128T, Y137S, Y164K, N184D, S198Q (protein)
chain: MTTVNEALNNVRAQVGSGVSVGNGECYALASWYERMISPDATVGLGAGVGWVSGAIGDTISAKNIGSSYNWQANGWTVSTSGPFKAGQIVTWGATPGNPYGHVSIVEAVDGDRLTILEQNYGGKRYPTRNYYSAASSRQQVVHYITPPGTVAQSAPNLAGSRSKRETGTMTVTVDALNVRRAPDTSGEIVAVYKRGEQFDYDTAIIDVNGYAWVSYIGGSGKRNYVATGATKDGKRFGNAWGTFK
Single agent MICs (MSSA strains; MSSA ATCC 29213): 1 µg/mL
Single agent MICs (MSSA strains; MSSA JMI-6625): 1 µg/mL
Single agent MICs (MSSA strains; MSSA JMI-6885): 1 µg/mL
Single agent MICs (MSSA strains; MSSA JMI-6886): 1 µg/mL
Single agent MICs (MSSA strains; MSSA JMI-7054): 1 µg/mL
Single agent MICs (MSSA strains; MSSA JMI-7160): 1 µg/mL
Single agent MICs (MSSA strains; MSSA JMI-38739): 1 µg/mL
Single agent MICs (MSSA strains; MSSA JMI-38986): 1 µg/mL
Single agent MICs (MSSA strains; MSSA JMI-40671): 1 µg/mL
Single agent MICs (MSSA strains; MSSA JMI-46142): 1 µg/mL
FIC (MSSA strains; MSSA ATCC 29213): 0.25
FIC (MSSA strains; MSSA JMI-6625): 0.0625
FIC (MSSA strains; MSSA JMI-6885): 0.25
FIC (MSSA strains; MSSA JMI-6886): 0.25
FIC (MSSA strains; MSSA JMI-7054): 0.25
FIC (MSSA strains; MSSA JMI-7160): 0.25
FIC (MSSA strains; MSSA JMI-38739): 0.25
FIC (MSSA strains; MSSA JMI-38986): 0.125
FIC (MSSA strains; MSSA JMI-40671): 0.25
FIC (MSSA strains; MSSA JMI-46142): 0.25
ΣFICmin (MSSA strains; MSSA ATCC 29213): 0.5
ΣFICmin (MSSA strains; MSSA JMI-6625): 0.3125
ΣFICmin (MSSA strains; MSSA JMI-6885): 0.375
ΣFICmin (MSSA strains; MSSA JMI-6886): 0.5
ΣFICmin (MSSA strains; MSSA JMI-7054): 0.5
ΣFICmin (MSSA strains; MSSA JMI-7160): 0.5
ΣFICmin (MSSA strains; MSSA JMI-38739): 0.5
ΣFICmin (MSSA strains; MSSA JMI-38986): 0.375
ΣFICmin (MSSA strains; MSSA JMI-40671): 0.375
ΣFICmin (MSSA strains; MSSA JMI-46142): 0.5
MIC pp296 (mouse serum) (S. aureus isolates; ATCC 29213 MSSA): 256
MIC pp296 (mouse serum) (S. aureus isolates; CAIRD426 MRSA): 32
MIC pp296 (mouse serum) (S. aureus isolates; HPV107 MRSA): 128
MIC pp296 (mouse serum) (S. aureus isolates; JMI227 MRSA): 64
MIC pp296 (mouse serum) (S. aureus isolates; JMI4789 MRSA): 256
MIC pp296 (mouse serum) (S. aureus isolates; NRS100 (COL) MRSA): 32
MIC pp296 (mouse serum) (S. aureus isolates; NRS123 (MW2) MRSA): 256
MIC pp296 (mouse serum) (S. aureus isolates; NRS271 MRSA/LRSA): 64
MIC pp296 (human serum) (S. aureus isolates; ATCC 29213 MSSA): 1
MIC pp296 (human serum) (S. aureus isolates; CAIRD426 MRSA): 1
MIC pp296 (human serum) (S. aureus isolates; HPV107 MRSA): 1
MIC pp296 (human serum) (S. aureus isolates; JMI227 MRSA): 1
MIC pp296 (human serum) (S. aureus isolates; JMI4789 MRSA): 1
MIC pp296 (human serum) (S. aureus isolates; NRS100 (COL) MRSA): 1
MIC pp296 (human serum) (S. aureus isolates; NRS123 (MW2) MRSA): 1
MIC pp296 (human serum) (S. aureus isolates; NRS271 MRSA/LRSA): 0.5
MIC pp296 (AST media) (S. aureus isolates; ATCC 29213 MSSA): 1
MIC pp296 (AST media) (S. aureus isolates; CAIRD426 MRSA): 1
MIC pp296 (AST media) (S. aureus isolates; HPV107 MRSA): 1
MIC pp296 (AST media) (S. aureus isolates; JMI227 MRSA): 0.5
MIC pp296 (AST media) (S. aureus isolates; JMI4789 MRSA): 1
MIC pp296 (AST media) (S. aureus isolates; NRS100 (COL) MRSA): 1
MIC pp296 (AST media) (S. aureus isolates; NRS123 (MW2) MRSA): 1
MIC pp296 (AST media) (S. aureus isolates; NRS271 MRSA/LRSA): 1
efficacy of dose-fractionation (q12h v. q8h) compared with q24h (S. aureus; pp296 5 or 50 mg/kg/day IV with vancomycin or daptomycin): does not appear to provide enhanced efficacy
driver of efficacy (PK/PD index) (S. aureus; pp296 with vancomycin or daptomycin): AUC related
FIC index ([1]; with daptomycin): ~0.5
FIC index ([1]; with vancomycin): ~0.5
